{"source": "paper PMC10038035", "about": "(Journal of Enzyme Inhibition and Medicinal Chemistry, 2023)", "molecular_target": "the molecule itself", "assay": "PrP aggregate formation assay (PAFA, thioflavin T fluorescence)"}
{"protein": "His-tagged mouse recombinant PrP (23-231) (domain or fragment) not shown", "values": [{"measurement": "binding result", "result": "binds"}]}
